Patent US20110110945A1, “Immunoglobulin Fusion Proteins and Methods of Making” (TransTech Pharma, Inc., priority 2007, published 2011)

How the values were obtained:
Settings in all cases: ligand 5 micrograms per well; dilutions of initial fusion protein solution; FIG. 7
[1] = target: T1, amyloid-beta (Amyloid Beta (1-40)) (Homo sapiens, UniProt P05067); experiment: In vitro ligand binding assay (ELISA), immobilized amyloid-beta
T1 construct: Amyloid Beta (1-40) from Biosource; purchased Biosource
Method: (§1) For example, the fusion protein may be used in a binding assay to identify potential ligands that bind to the non-immunoglobulin protein. In one example embodiment of such a binding assay, a known ligand may coated onto a solid substrate (e.g., Maxisorb plates) at a biologically relevant concentration (e.g., about 5 micrograms per well), where each well contains a total volume of about 100 microliters (μL). The plates may be incubated at 4° C. overnight to allow the ligand to bind to the substrate. Alternatively, shorter incubation periods at higher temperature (e.g., room temperature) may be used. After a period of time to allow for the ligand to bind to the substrate, the assay wells may be aspirated and a blocking buffer (e.g., 1% BSA in 50 mM imidizole buffer, pH 7.2) may be added to block nonspecific binding. […] The fusion protein bound to the immobilized ligand may be detected in a variety of ways. […] The bound complex may be detected by adding a substrate for the secondary antibody complex, e.g., the alkaline phosphatase substrate, para-nitrophenylphosphate (PNPP), and measuring conversion of PNPP to para-nitrophenol (PNP) as an increase in absorbance at 405 nm. […] In the absence of ligand (i.e., coating with only BSA) there was no increase in absorbance. The binding assay of the present invention may be used to quantify ligand binding. […]

[2] = target: T2, S100b (Homo sapiens, UniProt P04271); experiment: In vitro ligand binding assay (ELISA), immobilized S100b
T2 sequence (P04271 1-92): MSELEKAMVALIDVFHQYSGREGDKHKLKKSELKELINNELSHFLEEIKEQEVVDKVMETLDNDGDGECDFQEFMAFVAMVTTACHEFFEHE
Method: as §1

[3] = target: T3, amphoterin (Homo sapiens, UniProt P09429); experiment: In vitro ligand binding assay (ELISA), immobilized amphoterin
T3 sequence (P09429 1-215): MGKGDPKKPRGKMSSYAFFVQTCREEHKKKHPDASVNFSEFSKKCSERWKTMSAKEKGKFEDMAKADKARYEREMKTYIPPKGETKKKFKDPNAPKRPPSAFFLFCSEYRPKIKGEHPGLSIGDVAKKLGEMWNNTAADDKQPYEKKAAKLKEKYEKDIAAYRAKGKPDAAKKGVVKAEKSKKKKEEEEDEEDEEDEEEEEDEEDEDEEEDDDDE
Method: as §1

T1 sequence (P05067 672-711 limits assumed): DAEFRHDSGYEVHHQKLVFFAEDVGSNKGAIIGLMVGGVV

B1: TTP-3000: RAGE fusion protein: V domain of human RAGE (amino acids 1-136) linked to hinge-less CH2 and CH3 of human IgG1; SEQ ID NO: 17/19 (protein)
chain 1: MAAGTAVGAWVLVLSLWGAVVGAQNITARIGEPLVLKCKGAPKKPPQRLEWKLNTGRTEAWKVLSPQGGGPWDSVARVLPNGSLFLPAVGIQDEGIFRCQAMNRNGKETKSNYRVRVYQIPGKPEIVDSASELTAGPSVFLFPPKPKDTLMISRTPEVTCVVVDVSHEDPEVKFNWYVDGVEVHNAKTKPREEQYNSTYRVVSVLTVLHQDWLNGKEYKCKVSNKALPAPIEKTISKAKGQPREPQVYTLPPSRDELTKNQVSLTCLVKGFYPSDIAVEWESNGQPENNYKTTPPVLDSDGSFFLYSKLTVDKSRWQQGNVFSCSVMHEALHNHYTQKSLSLSPGK
chain 2: ENITARIGEPLVLKCKGAPKKPPQRLEWKLNTGRTEAWKVLSPQGGGPWDSVARVLPNGSLFLPAVGIQDEGIFRCQAMNRNGKETKSNYRVRVYQIPGKPEIVDSASELTAGPSVFLFPPKPKDTLMISRTPEVTCVVVDVSHEDPEVKFNWYVDGVEVHNAKTKPREEQYNSTYRVVSVLTVLHQDWLNGKEYKCKVSNKALPAPIEKTISKAKGQPREPQVYTLPPSRDELTKNQVSLTCLVKGFYPSDIAVEWESNGQPENNYKTTPPVLDSDGSFFLYSKLTVDKSRWQQGNVFSCSVMHEALHNHYTQKSLSLSPGK
modifications: synthetic three domain RAGE-Fc IgG fusion protein; synthetic three domain RAGE-Fc IgG fusion protein having signal sequence removed
specifically interact: binding to immobilized amyloid-beta (increase in absorbance at 405 nm) [1] | binding to immobilized S100b (increase in absorbance at 405 nm) [2] | binding to immobilized amphoterin (increase in absorbance at 405 nm) [3]
